{
  "source": "patent US20030180295A1",
  "about": "“Angiocidin: a Cys-Ser-Val-Thr-Cys-Gly specific tumor cell adhesion receptor” (Philadelphia Health and Education Corporation, priority 1999, published 2003)",
  "molecules": {"B1": {"name": "amino terminal fragment Met1-Lys132: amino terminal fragment Met1-Lys132 of angiocidin (SEQ ID NO: 24) (protein, listed as Homo sapiens)", "chain": "MVLESTMVCVDNSEYMRNGDFLPTRLQAQQDAVNIVCHSKTRSNPENNVGLITLANDCEVLTTLTPDTGRILSKLHTVQPKGKITFCTGIRVAHLALKHRQGKNHKMRIIAFVGSPVEDNEKDLVKLAKRLK"}},
  "key": {"[1]": {"target": "TSP-1 (Homo sapiens, UniProt P07996)", "sequence (P07996 19-1170)": "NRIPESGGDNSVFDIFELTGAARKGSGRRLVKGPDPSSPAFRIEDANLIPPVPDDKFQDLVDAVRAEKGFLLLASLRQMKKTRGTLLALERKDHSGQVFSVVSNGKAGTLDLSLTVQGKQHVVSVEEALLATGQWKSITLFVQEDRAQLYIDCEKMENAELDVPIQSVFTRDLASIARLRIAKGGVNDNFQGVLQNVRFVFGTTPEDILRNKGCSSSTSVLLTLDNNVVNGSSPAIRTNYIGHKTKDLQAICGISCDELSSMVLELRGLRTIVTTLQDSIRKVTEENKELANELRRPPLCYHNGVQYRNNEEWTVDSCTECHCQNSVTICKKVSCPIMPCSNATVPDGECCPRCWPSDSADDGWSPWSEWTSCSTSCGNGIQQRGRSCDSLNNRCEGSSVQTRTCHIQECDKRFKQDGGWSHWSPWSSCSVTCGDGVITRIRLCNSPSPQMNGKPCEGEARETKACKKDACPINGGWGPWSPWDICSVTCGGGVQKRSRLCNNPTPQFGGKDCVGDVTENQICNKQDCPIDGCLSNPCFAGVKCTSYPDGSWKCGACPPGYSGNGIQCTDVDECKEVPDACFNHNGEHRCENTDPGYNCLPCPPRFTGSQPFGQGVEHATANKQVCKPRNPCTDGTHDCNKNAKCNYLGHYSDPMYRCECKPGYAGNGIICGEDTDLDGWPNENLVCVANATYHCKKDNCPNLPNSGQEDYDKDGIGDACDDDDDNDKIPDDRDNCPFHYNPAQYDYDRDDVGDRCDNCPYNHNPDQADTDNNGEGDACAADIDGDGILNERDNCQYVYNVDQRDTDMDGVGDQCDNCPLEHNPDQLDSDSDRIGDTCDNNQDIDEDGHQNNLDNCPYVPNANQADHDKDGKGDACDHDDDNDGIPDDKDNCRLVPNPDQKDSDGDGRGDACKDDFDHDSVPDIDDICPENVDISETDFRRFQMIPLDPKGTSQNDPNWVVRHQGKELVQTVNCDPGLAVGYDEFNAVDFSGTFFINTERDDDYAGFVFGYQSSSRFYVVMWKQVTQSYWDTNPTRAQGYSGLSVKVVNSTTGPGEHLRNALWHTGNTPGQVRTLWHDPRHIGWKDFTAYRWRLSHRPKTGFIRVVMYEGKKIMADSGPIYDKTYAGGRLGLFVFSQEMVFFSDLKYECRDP", "assay": "Optical binding of angiocidin fragments to TSP-1 derivatized cuvette", "details": "test proteins at 10 nm in PBS buffer", "protocol": "This study examines the amino terminal (Met1-Lys132) and carboxy terminal (IIe248-Lys380) portions of angiocidin (SEQ ID NOS: 24 and 25, respectively). The binding of undenatured recombinant angiocidin fragments was compared to full length angiocidin. GST was used as a negative control. Binding was evaluated using an optical binding method that uses a cuvette to which TSP-1 is covalently coupled. A laser beam was used to detect whether the test protein (fragments, angiocidin, or GST) is bound to the TSP-1 derivatized cuvette surface. The cuvette was derivatized with 1 μg of TSP-1. The cuvette surfaces were blocked with a 1% BSA solution to prevent nonspecific binding. The test proteins were added at a concentration of […] in a PBS buffer."}, "[2]": {"tested_on": "Bovine aortic endothelial cells (BAEC)", "assay": "ALAMAR BLUE cell viability assay", "type": "cell-based", "protocol": "Bovine aortic endothelial cells (BAEC), human umbilical vein endothelial cells (HUVEC), fibroblast cells, A549 human lung carcinoma cells (A549), MDA-MB231 human breast carcinoma cells (MB231), MCF7 human breast carcinoma cells (MCF7) were treated with 37 μg/ml of receptor, or buffer alone, for 24 hours. Viability of the cells was measured using the ALAMAR BLUE™ assay, which measures the capacity of cells to metabolize the ALAMAR BLUE™ dye. The ALAMAR BLUE™ assay (available from Biosource International, Camarillo, Calif.) quantitatively measures the proliferation of cell lines and can establish the relative cytotoxicity of chemical agents. […] Data can be collected using either fluorescence-based instrumentation (530-560 nm excitation wavelength and 590 nm emission wavelength) or absorbance-based instrumentation (570 nm and 600 nm).\nBAEC and BSM cells were treated with increasing concentrations of angiocidin (0, 0.625, 1.25, 2.5, 5, 15, 26 and 37 μg/ml) for 24 hours. Cell viability was measured using the ALAMAR BLUE Tm assay. […]\nBovine aortic endothelial cells (BAEC) were cultured overnight in serum-free media containing either 37 μg/ml his-tagged angiocidin or his-tagged GST. […] Viability was measured by the ALAMAR BLUE™ assay. […]\nThe endothelial cells (BAEC) were incubated overnight 37 μg/ml of the angiocidin, fragments, and GST. Viability was measured using the ALAMAR BLUE™ assay."}},
  "data": [
    {"molecule": "B1", "values": [
      {"measurement": "binding to TSP-1 derivatized cuvette", "setting": "[1]", "result": "show very similar binding at the nano molar range"},
      {"measurement": "anti-endothelial activity compared to angiocidin", "setting": "[2]; 37 μg/ml, overnight", "result": "has the same anti-endothelial activity as the full length angiocidin"},
      {"measurement": "cell viability, angiocidin and fragments", "setting": "[2]; Example 27, FIG. 34", "result": "inhibited cell viability"}
    ]}
  ]
}
